The target of assay [1] is SARS-CoV-2 spike protein on pseudotyped lentivirus (Wuhan Reference Pseudovirus) (SARS-CoV-2, UniProt P0DTC2 14-1273). Nature of the assay: cell-based or functional assay.
In assay [2] the target is T1, recombinant SARS-CoV-2 RBD with C-terminal AviTag (SARS-CoV-2, UniProt P0DTC2 319-541). Briefly: ELISA, competition with coated ACE2-Fc for RBD [Cont. 3].
Assay [3] has as its target T1, recombinant SARS-CoV-2 RBD with …. Nature of the assay: BLI, biotinylated RBD on streptavidin biosensors; OR: over-range [Cont. 3].

B1: PP828 MBP-R5C-B2-H6 (VHH)
VHH: QVQLVESGGGLVQPGGSLRLSCAASGSIFSLNWVHWFRQAPGKSREGVASINSGGHADYSDSVKGRFTISRDNAKNTVYLQMNSLKPEDTAVYYCAAGPYGAYNFNSWGQGTQVTVSS
notes: Form: Monomer
Regarding B1, the “infectivity % under 10 ug/mL VHH treatment” value in assay [1] came to 73.4%. Moreover, the IC50 in assay [2] turned out to be 373 nM. Also, in assay [3], the dissociation constant Kd was roughly 1370 nM.

The record behind these values is patent US20240150440A1 (LUMEN BIOSCIENCE, published 2024).
